Publication doi:10.1101/2025.08.14.670363

Tests used:
[1] = molecular target: actin-free Xenopus cyclase-associated protein 1 (Xenopus laevis); assay: high-speed atomic force microscopy; F-actin held on a mica-supported lipid bilayer (DPPC:DPTAP:biotin-cap-DPPE 89:10:1); actin-free XCAP1 or XCAP1-actin complex injected at 20-100 nM; 30 mM KCl, 10 mM imidazole-HCl pH 7.0, 1 mM MgCl2, 0.5 mM EGTA, 10 mM DTT, 10 % glycerol, 0.2 mM ATP; room temperature; dwell time of single particles
[2] = molecular target: Rabbit skeletal muscle actin filaments (rabbit) (UniProt P68135); assay: as above

stoichiometry N [1]: 4 | dwell time [2]: 0.2 s | dwell time (small particles of the XCAP1-actin complex preparation) [2]: 0.2 s | dwell time at the filament end [2]: 0.24 s | dwell time at the filament side [2]: 0.2 s
Substance: actin-free Xenopus cyclase-associated protein 1 (natural protein)
